Experiment: yeast display, Sf9 membrane polyspecificity reagent, FACS + sequencing; frameworks hold sequencing errors
How it was run: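 Synthetic nanobody libraries on Saccharomyces cerevisiae BJ5465 were galactose-induced for 36–48 hours, stained 1 hour at 4 °C with 10% biotinylated, detergent-solubilized Sf9 membrane reagent and enriched on streptavidin microbeads. FACS then separated cells into low and high (top ~1%) gates by anti-HA (expression) and streptavidin (reagent binding) fluorescence. Genes were colony-PCR amplified, MiSeq 2 × 250 sequenced and CDR-length filtered. A clone's polyreactivity label is that of its gate of origin.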

Row | Sequence | polyreactivity (PSR sort gate)
1 | QVQLVESGGGLVQAGGSLRLSCAPSGRTFGSNTMGLYRQAPGKEIELVAGITFSSGSTYYADSVKGRFTISRDNANNTVYLQMNSLKPEDTAVYDCAVRNASKNRKYYYWGQGTQVTVSS | high polyreactivity
2 | QVQLVESGGGLVQAGGSLRLSCAPSGRTFSRNAMGWYRQAPGKERELVAAISQRGVSTYYADSVKGSFTISRDNAQNSVYLQMNSLKPEDSAVYYCNTRGTYRYDYWGQGTQGTVSS | low polyreactivity
3 | QVQLVESGGGLVQAGGSLRLSCAPSGRTFVDYDMGWYRQAPGKERELVADINSGGSTYYADSVKGRFTISRDNAKNTVYLQMNSLKPEDTAVYYCAARYTFDRWKFGYWGQGTQVTVSS | high polyreactivity
4 | QVQLVESGGGLVQAGGSLRLSCAPSGRTFWYNAMGWYRQAPGKERELVATITSGGRTSYADSVKGRFTISRDNAKNTVYLQMNSLKPEDTAVYYCAATTGWYGARYGYWGQGTQVTVSS | high polyreactivity
5 | QVQLVESGGGLVQAGGSLRLSCAPSGRTLIHYAMGWSRQAPGKEREFVATINIGGRTYADSVKGRFTISRDNAKTTVYLQMNSLKPEDSAVYYCDADHRYSARRSFPTLYDYWAQGTQVTVSS | low polyreactivity
6 | QVQLVESGGGLVQAGGSLRLSCAPSGSIFAYYAMGWYRPAPGKERELVAAISKSGGRTYYADSVKGRFTISRDNAKNTVYLQMNSLKPEDTAVYYCAADGPGYTYDYWGQGTQVTVSS | high polyreactivity
7 | QVQLVESGGGLVQAGGSLRLSCAPSGSIFGGYAMGWYRQAPGKERELVAGITYSGDSTYYADSVKGRFTISRDNAKYTVYLQMNSLKPEDTAVYYCNADQRVDHDDFDYWGQGTQVTVSS | low polyreactivity
8 | QVQLVESGGGLVQAGGSLRLSCAPSGSIFGVYAMGWYRQAPGKERELVDTISWSAGSTYYADSVKGRFTISRDNAKNTVYLQMNSLKPVDTAVYYCGAGVRWLGLYDLFTFDYWGQGTQVTVSS | low polyreactivity
9 | QVQLVESGGGLVQAGGSLRLSCAPSGSIFWLYDMGWYRPAPGKERELVAAIDSGDSTKYADSVKGRFTISRDNAKNTVYLQMNSLKPEDTAVYYCNASRRYHVRAPYDYWGQGTQVTVSS | low polyreactivity
10 | QVQLVESGGGLVQAGGSLRLSCAPSGSILWLNAMGWYRQAPGKERELVADITRGGSTYYADSVKGRFTISRDNAKNTVYLQMNSLKPEDTAVYYCAAKRGKTYQRFDYWGQGTQVTVSS | high polyreactivity
11 | QVQLVESGGGLVQAGGSLRLSCAPSGSTFRTYAMGWYRQAPGKERELVAAISSGDNTNYADSVKGRFTISRDNAKNTAYLQMNSLKPEDTAVYYCASRAYRWRSFYTMYYCGQGTQVTVSS | high polyreactivity
12 | QVQLVESGGGLVQAGGSLRLSCAPSGSTFRYNAMGWYRQAPGKERELVAAITFSGDSTSYADSVKGRFTISRDNAKNTVYLQMNSLKPEDTAVYYCAVDTWNGDGSGYSLEFEYWGQGTQVTVSS | low polyreactivity
13 | QVQLVESGGGLVQAGGSLRLSCAPSGSTFYKYVMGWYRQAPGKERELVAAISQGGSSTYYADSVKGRFTISRDNAKYTVYVLMNSLKPEDTAVYYCAAQYWWWSRFEYDSWGQGTQVTVSS | low polyreactivity
14 | QVQLVESGGGLVQAGGSLRLSCAPSGTTFTRNAMGWYREAPGKERELVAAISFSGGSTYYADSVKGRFTISRDNAKNTVYIQMNSLKPEDTAVYYCATKVEYRYYYWGQGTQVTVSS | high polyreactivity
15 | QVQLVESGGGLVQAGGSLRLSCAPSGYIFYDNAMGWYRQAPGKEREFVAAITFSGDSTDYADSVKGRFTISRDNAKNTVYLQMNSLKPEDTAVYYFNTVYYRYYIELYFSSYDYWGQGTQVTVSS | high polyreactivity
16 | QVQLVESGGGLVQAGGSLRLSCAPTGFIFFTYAMGWYRQAPGKERELVAAISQSGASTYYADSVKGRFTISRDNAKKTVYLQMNSLKPEDSAVDYCAATYSFRYWIQRYNYWGQGTQVTVSS | low polyreactivity
17 | QVQLVESGGGLVQAGGSLRLSCASSGFIFFSYAMGWYRQAPGKERELVASISRSGGTTYYADSVKGRFTISRDNAKNTVYLQMNSLKPEDTAVYYCAARTYSYYSRDYWGQVTQVTVSS | high polyreactivity

Source: the nanobody polyreactivity screen of Harvey et al. (2022)
